Laboratory results published in patent publication US20190106493A1 (MABQUEST, published 2019).

B1: 135C12 (antibody, V domains shown)
VH: EVQLHQSGPELLKPGASVRMSCKASGYTFTNFYIHWVKQSHGKSIEWIGSIYPNYGDTAYNQKFKDKATLTVDKSSSTAYMALRSLTSEDSAVYYCARGYSYAMDYWGQGTSVTVSS
VL: NIVMTQSPKSMSMSVGERVTLTCKASENVVTYVSWYQQKPEQSPKLLIYGASNRYTGVPDRFTGSGSATDFTLTISSVQAEDLADYHCGQGYSYPYTFGGGTKLEIK
B2: 137F2 (antibody, V domains shown)
VH: QVQLQQPGAELVRPGTSVKMSCKAAGYTFTNYWIGWIKQRPGHGLEWIGDIYPGGGYTNYNEKFKGKATLTADTSSSTAYMQVSSLTSEDTGIYYCARGYDFVLDRWGQGTSVTVSS
VL: DIVMSQSPSSLAVSTGEKVTMTCKSSQSLFNSETQKNYLAWYQQKPGQPPKLLIFWASTRESGVPDRFLGSGSGTDFTLTISSVQAEDLAVYYCKQSYTLRTFGGGTKLEIK

Columns and labels:
[1] = biological target: endogenous cell surface PD-1 on activated CD4 T cells (human, UniProt Q15116 25-288); test: cell-based or functional assay
[2] = biological target: T1, PD-1 Fc fusion protein (human, UniProt Q15116 25-167, limits assumed); test: FIG. 5A; Luminex, PD-1 Fc beads, antibody titrated, competitor: fixed biotinylated PD-L1
T1 construct: construct limits, linker and Fc not described; the bead protein is printed only as 'PD-1 Fc fusion protein'; also called human PD-1 Fc fusion protein; PD-1 Fc fusion protein coated beads
T1 sequence (Q15116 25-167 limits assumed): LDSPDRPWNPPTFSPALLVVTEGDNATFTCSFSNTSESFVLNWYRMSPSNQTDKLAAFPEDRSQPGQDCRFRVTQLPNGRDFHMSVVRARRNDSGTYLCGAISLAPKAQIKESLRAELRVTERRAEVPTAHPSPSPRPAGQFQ

Sequence of endogenous cell surface PD-1 on activated CD4 T cells (Q15116 25-288): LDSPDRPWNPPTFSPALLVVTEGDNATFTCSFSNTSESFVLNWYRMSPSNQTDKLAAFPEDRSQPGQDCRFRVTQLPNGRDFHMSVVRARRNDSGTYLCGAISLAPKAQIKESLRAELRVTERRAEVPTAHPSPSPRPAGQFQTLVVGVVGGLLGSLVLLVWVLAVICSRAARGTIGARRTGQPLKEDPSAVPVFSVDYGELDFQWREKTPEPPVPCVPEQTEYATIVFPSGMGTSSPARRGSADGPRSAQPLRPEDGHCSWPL

| Binder | EFRA % relative to peptide stimulation alone [1] | IC50 [2] |
| --- | --- | --- |
| B1 | 195% | – |
| B2 | 250% | ~0.2 nM |
